{"source": "patent US7060449", "data": [{"target": "T1, rat GALR2 (rat)", "T1 chain": "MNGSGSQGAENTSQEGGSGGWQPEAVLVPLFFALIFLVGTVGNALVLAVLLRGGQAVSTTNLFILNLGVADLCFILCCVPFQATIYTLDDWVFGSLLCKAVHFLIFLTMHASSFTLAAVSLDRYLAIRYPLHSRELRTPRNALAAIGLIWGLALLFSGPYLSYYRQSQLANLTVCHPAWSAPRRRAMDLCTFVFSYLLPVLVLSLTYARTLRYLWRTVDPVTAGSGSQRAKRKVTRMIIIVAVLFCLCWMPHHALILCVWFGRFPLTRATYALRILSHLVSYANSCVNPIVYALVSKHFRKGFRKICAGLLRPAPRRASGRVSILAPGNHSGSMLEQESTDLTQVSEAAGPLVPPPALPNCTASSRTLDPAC", "assay": "competition", "details": "modification not given", "units": {"Ki": "nM"}, "values": [{"binder": "GWTLNSAGYLLGPHAIDNHRSFHDKYGLA", "note": "[[D-Trp2]porcine galanin(1-29), P07480]", "Ki": 6.46}, {"binder": "GWTLNSAGY", "note": "[porcine galanin 1-9, P07480]", "Ki": "> 1000"}, {"binder": "GWTLNSAGYLLGPHAIDNHRSFHDKYGLA", "note": "[porcine galanin(1-29), P07480]", "Ki": 0.447}, {"binder": "GWTLASAGYLLGPHAI", "note": "[[Ala5]galanin(1-16), P07480]", "Ki": "> 620"}, {"binder": "DNHRSFHDKYGLA", "note": "[porcine galanin 17-29, P07480]", "Ki": "> 1000"}, {"binder": "GWTLNSAGALLGPHAI", "note": "[[Ala9]galanin(1-16), P07480]", "Ki": "> 1000"}, {"binder": "GFTLNSAGYLLGPHAIDNHRSFHDKYGLA", "note": "[[Phe2]porcine galanin(1-29), P07480]", "Ki": "> 1000"}, {"binder": "GFTLNSAGYLLGPHAI", "note": "[Phe2-galanin 1-16, P07480]", "Ki": "> 1000"}, {"binder": "GATLNSAGYLLGPHAI", "note": "[porcine Ala2-galanin 1-16, P07480]", "Ki": "> 1000"}]}, {"target": "T1, rat GALR2 (rat)", "assay": "radioligand", "details": "modification not given", "units": {"Kd": "nM"}, "values": [{"binder": "GWTLNSAGYLLGPHAIDNHRSFHDKYGLA", "note": "[[125I]porcine galanin, P07480]", "Kd": 0.2}]}]}
